Patent US20060177479A1

Molecular target: Notch receptor expressed on rat esophageal epithelial cells (rat)
Experiment: cell-based or functional assay

Recombinant Rat Jagged-1/Fc chimera (Fc fusion)
Notch/CSL signaling (luciferase/Renilla intensity), immobilized Jagged-1/Fc against Fc control: 10 fold
increase in luciferase activity as compared to Fc control plates, 10 nM Jagged-1/Fc precoat, 24 hours: 4 to 10 fold
